How the values were obtained:
[1] = molecular target: T1, SARS-CoV-2 Spike RBD (original) (SARS-CoV-2 (original), UniProt P0DTC2 319-541); experiment: ELONA; 25 C
[2] = molecular target: T1, SARS-CoV-2 Spike RBD (original); experiment: EMSA

Row | Binder | Kd [1] [nM] | binding result [2]
1 | ACUUGGCCACGUCGACUGAAAUCCUCUUCCUGCAGGGCCAAGUG (structured_RNA) [#2-1-18] | 16.8 | 
2 | ACUUGGCCACGUCGACUGAAAUCCUCUUCCUGCAGGGCCAAGUG (structured_RNA, 2'-F at pyrimidines, 2'-O-methyl at purines) [#2-1-18-2'-F-O] |  | binds
3 | ACUUGGCCAUUUUUCUUUUUCUUUUUCUUUUUCUGCAGGGCCAAGUG (ssRNA) [NC-RNA apt] |  | no binding
4 | ACUUGGCCAAUUACCGUAGUUUUUGUAGUCUGCAGGGCCAAGUG (structured_RNA) [#5-2-15] | 24.7 | 
5 | ACUUGGCCAAUUACCGUAGUUUUUGUAGUCUGCAGGGCCAAGUG (structured_RNA, 2'-F at pyrimidines, 2'-O-methyl at purines) [#5-2-15-2'-F-O] |  | binds

Reference: publication PMC10401102, “Repurposing CRISPR/Cas to Discover SARS‐CoV‐2 Detecting and Neutralizing Aptamers”
